For one molecule, amount of antibody that blocks the binding of PD-1 to PD-L1 results are on record in CN112225809A.

The assay concerns the target hPD1/Fc of human IgG1 (fluorescently labelled) (human) (UniProt Q15116). Kind of assay: flow cytometry blocking assay: 100 ng hPD-1/hFc-FITC and antibody on SPC-A1-PDL1 cells. A general note: Flow cytometry measures light scatter and fluorescence of single cells or particles in a stream.
Sequence of UniProt Q15116 (Q15116 25-167 limits assumed): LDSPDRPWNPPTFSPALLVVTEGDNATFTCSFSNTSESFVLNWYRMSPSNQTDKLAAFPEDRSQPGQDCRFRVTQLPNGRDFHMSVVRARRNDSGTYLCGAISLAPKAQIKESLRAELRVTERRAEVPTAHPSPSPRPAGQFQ

B1: hUM1-30 (antibody, human IgG4 S228P, kappa, V domains shown)
VH: EVQLVESGGGLVQPGGSLRLSCAASGFTFSTYGMSWVRQAPGKGLEWVSTISGGGRYTYYPDSVKGRFTISRDNSKNTLYLQMNSLRAEDTAVYYCARQKGTTWFAHWGQGTLVTVSS
VL: DIQMTQSPSSLSASVGDRVTITCRASESVDDNGISFMNWFQQKPGKAPKLLIYAASNQGSGVPSRFSGSGSGTDFTLTISSLQPEDFATYYCQQSKEVPWTFGQGTKVEIKR
Consider B1, for which the amount of antibody that blocks the binding of PD-1 to PD-L1 was 1.6 µg.
